Values of other authors in paper PMC10910070.
pKd: −log10 of the molar value.

System: gliadin (wheat, commercial mixture) (wheat)
Assay: not stated (cited value)
Details: 5 mM Tris pH 7.4, 25 C; 300 uL AuNPs + 200 uL 40 nM aptamer + 200 uL gliadin, then 200 uL NaCl (40 mM in Methods, 37 mM in Fig. 2 legend), 900 uL final

For “CCAGTCTCCCGTTTACCGCGCCTACACATGTCTGAATGCC [Apt-1]”, the pKd is listed as 6.73.
In the case of CTACACATGTCTGAATGCC [Apt-2], the pKd is listed as 6.83.
